From patent publication KR20180112916A (dated 2018) come the findings set out here.

The target of the test is T1, B-세포 에피토프 펩타이드 Myc362 (human).
T1 construct: Synthetic peptide of over 90% purity, coated on the ELISA plate at 5 ug/ml; also called Myc362 펩타이드
Description: ELISA; Myc362 peptide coated at 5 ug/ml, antibody in serial dilution, HRP anti-IgG detection. (In general: In an ELISA, binding on a coated surface is turned into a signal by an enzyme label.)

T1 sequence (peptide, as listed by the source): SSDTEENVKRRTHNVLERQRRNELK

B1: 2E2F12 단클론 항체 (anti-Myc362 펩타이드-특이적인 단클론 항체) (antibody, V domains shown)
VH: EVQLQESGTELVKPGASVKLSCKASGYTFTSYWMHWVKLRPGQGFEWIGEINPSSGGTNYNENFKRKATLTVDRSSSTAYMQLSSLTSEDSAVYYCTIHRSYWGQGTTLTVSS
VL: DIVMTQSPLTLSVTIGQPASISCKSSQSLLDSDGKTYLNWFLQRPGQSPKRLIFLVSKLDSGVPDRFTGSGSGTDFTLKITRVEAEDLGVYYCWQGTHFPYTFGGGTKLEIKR
notes: also called 2E2F12 클론; anti-c-Myc 단클론 항체
B1: the Kd is around 37 nM.

As usually defined, the Kd is a measure of binding affinity in units of concentration. Read a low Kd as higher affinity.
